Measurements as given in the RNAGym collection of RNA variant scans (doi:10.1073/pnas.2313332121).

B1: TPR t1 (parent)
chain: GACCAAUCUGCCCUCAGAGCUCGAGAACAUCUUCGGAUGCAGAGGAGGCAGGCUUCGGUGGCGCGAUAGCGCCAACGUCCUCAACCUCCAAUGCAUCCCACCACAUGAUGAUGCCUGAAGAGCCUUGGUUUUUUG

Variants of: B1
Assay: polymerase ribozyme fitness, log enrichment relative to wild type (log ratio); higher = more active; in vitro selection for triplet polymerase activity
Summary of the method: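 Fitness is a logarithmic measure of how a genotype enriched relative to the wild type, with replicate averages weighted by inverse variance. The logarithm uses base 2, and enrichment came from Illumina sequencing of input and output libraries. Those libraries were PCR-built, transcribed mutants of each subunit of a heterodimeric triplet polymerase ribozyme, passed through one triplicate in vitro selection round that included frozen incubation at −7 °C, gel excision of extended constructs and streptavidin-bead capture. Genotypes were kept only if they had ≥10 input reads and ≥1 read per output.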

Variant | polymerase ribozyme fitness (log ratio)
GACCAAUCUGCCCUCUGAGCUCGAGAACAUCUUCGGAUGCAGAGGAGGCAGGCUUCGGUGGCGCGAUAGGGCCAACGUUCUCAACCUCCAAUGUAUCCCACCACAUGAUGAUGCCUGAAGAGCCUUGGUUUUUUG [A16U C70G C79U C94U] | -2.44
GACCAAUCUGCCCUCUGAGCUCGAGAAUAUCUUCGGAUGCAGAGGAGGCAGGCUUCGGUGGCGCGAUAGCGCCAACGUCCUCAACCUCCAAUGCAUCCCACCACAUGAUGAUGCCUGAAUAGCCUUGGUUUUUUG [A16U C28U G120U] | -3.52
GACCAAUCUGCCCUCUGAGCUCGAGAACAUCUUCGGAUGCAGAGGAGGCAGGCUUCGGUGGCGUGAUAGCGCCAACGUCCUCAACCACCAAUGCAUCCCACCACAUGAUGAAGCCUGGAGAGCCUUGGUUUUUUG [A16U C64U U87A U112A A118G] | -2.35
GACCAAUCUGCCCUCUGAGCUCGAGAACAUCUUCGGAUGCAGAGGAGGCAGGGUUCGGCGGCGCGAUAGCGCCAACGUCCUCAACCUCCAAUGCAGCCCACCACAUGAUGAAGCCUGAAGAGCCUUGCUUUUUUG [A16U C53G U59C U96G U112A G128C] | -3.81
GACCAAUCUGCCCUCUGAGCUCGAGAACAUUUUCGGAUGCAGAGGAGGCAGGCUUCGGUGGCGCGAUAGCGCCAACGUCCUCAACCUCCAAUGCAUCCCACCACAUGAUGAUGCCUGAAGAGCCUUGGUUUUUUG [A16U C31U] | -4.77
GACCAAUCUGCCCUCUGAGCUCGAGAACAUCUUCGGAUGCAGAGGAGGCAGGCUUCGGUGGCGCGAUAGCGCCAACGUCCUCAACCUCGAAUGCAUCCCACCACAUGAUGAUGCCUGAAGAGGCUUGGUUUUUUG [A16U C89G C123G] | -1.67
GACCAAUCUGCCCUCUGAGCUCGAGAACAUCUUCGGAUGCAGAGGAGGCAGGCUUCGGUGGCGCGAUAGUGCCAACGUCCUCAACCUCCAAUGCAUCCCACCACAUGAUGAUGCCUGAAGAGCCUUGGUUUUUUG [A16U C70U] | -1.98
GACCAAUCUGCCCUCUCAGCUCGAGAACAUCUUCGGAUGCAGAGGAGGCAGGCUUCGGUGGCGCGAUAGCGCUAACGUCCUCAACCUCCAAUGCAUCCCACCACAUGAUGAUGCCUGAAGAGCCUUGGUUUUUUG [A16U G17C C73U] | -3.41
GACCAAUCUGCCCUCUGAGCUCGAGAACAUCUUCGGAUGCAGAGGAGGCAGGAUUCGGUGGCGCGCUAGCGCCAACGUCCUCAACCUCCAAUGCAUCCCACCACAUGAUGAUGCCUGAAGAGCCUUGGUUUUUUG [A16U C53A A66C] | -2.72
GACCAAUCUGCCCUCUGAGCUCGAGAACAUCUUCGGAUGCAGAGGAGGCAGGCUUCGGUGGCGAGAUAGCGCCAACGUCCUCAACCUCAAAUGCAUCCCACCACAUGAUGGUGCCUGAAGAGCCUUGGUGUUUUG [A16U C64A C89A A111G U130G] | -5.81
GACCAAUCUGCCCUCUGAGCUCGAGAACAUCUUCGGAUGAAGAGGAGGCAGGCCUCGGUAGCGCGAUAGCGCCAACGUCCUCAACCUCCAAUGCAUCCCACCACAUGAUGAUGCCUGAAGAGCCUUGGUUUUUUG [A16U C40A U54C G60A] | -2.69
GACCAAUCUGCCCUCUGAGCUCGAGAACAUCUUCGGAUGCAGAGGAGGCAGGCUUCGGUGGCGCGAUAGAGCCAACGUCCUCAACCUCCAAUGCAUCCCACCACAUGAUGAUGCCCGAAGAGCCUUGGUGUUUUG [A16U C70A U116C U130G] | -2.69
GACCAAUCUGCCCUCUGAGCUCGAGAACAUCUUCGGAUGCAGAGGAGGCAGGCUUCGGUGGCGCGAUAGCGCCAACGUCCUCAACCUCGAAUGCAUCCCACCACAUGAUGAUGCCUGAAGAGCCUUGGUCUUUUG [A16U C89G U130C] | -2.31
GACCAAUCUGCCCUCUGAGCUCGAGAACAUCUUCGGAUGCAGAGGAGGCAGGCUUUGGUGGCGCGAUAGCGCCAACGUCCUCAACCUCCAAUGCAUCCCACCACAUGAUGAUGCCUGAAGAGCCUUGGUUUUUUG [A16U C56U] | -1.86
GACCAAUCUGCCCUCUGAGCUCGAGAACAUCUUCGGAUGCAGAGGAGGCAGGCUUCGGUGGCGCGAUAGCGCCAACGUCCUGAACCACCAAUGCAUCCCACCACAUGAUGAUGCCUGAAGAGCCUUGGUUUUUUG [A16U C82G U87A] | -3.81
GACCAAUCUGCCCUCUGAGCUCGAGAACAUCUUCGGAUGCAGAGGAGGCAGGCUUCGGUGGCGCGAUAGCGCCAACGUCCUCAACCUCCAAUGUAUCCCAUCACAUGAUGAUGCCCGAAGAGCCUUGUUUUAUUG [A16U C94U C101U U116C G128U U132A] | -5.42
GACCAAUCUGCCCUCUGAGAUCGAGAACAUCUUCGGAUGCAGAGGAGGCAGGCUUCGGUGGUGCGAUAGCGCCAACGUCCUCCACCUCCAAUGCAUCCCACCACAUGAUGAUGCCUGAAAAGCCUUGGUUUUUUG [A16U C20A C62U A83C G120A] | -6.31
GACCAAUCUGCCCUCUGAGCUCGAGAACAUCUUCGGAUGCAAAGGAGGCAGGCUUCGGUGGCGCGAUAGCGCCAACGUCCUCAACCUCCAAUGCAUCCCACCACAUGAUGAUGCCUGAAGAGCCUUGGUUUUUUG [A16U G42A] | -3.84
GACCAAUCUGCCCUCUGAGCUCGAGAACAUCUUCGGAUGCAGAGGAGGCAGGGUUCGGUGGCGCGAUAGCGCCAACGUCCUCAACCUCCAAUGCAUCCCACCACAUGAUGAUGCCUGAAGAGCCUUGGUUUUUUG [A16U C53G] | -1.82
GACCAAUCUGCCCUCUGAGCUCGAGAACAUCUUCGGAUGUAGAGGAGGCAGGCUUCGGUGGCGCGAUAGCGCCAACGUCCUUAACCUCCAAUGCAUCCCACCACAUGAUGAUGCCUGAAGAGCCUUGGUUUUUUG [A16U C40U C82U] | -2.7
GACCAAUCUGCCCUCUGAGCUCAAGAACAUCUUCGGAUGCAGAGGAGGCAGGCUUCGGUAGCGCGAUAGCGCCAACGUCCUCAACCUCCAAUGCAUCCCACCACAUGAUGGUGCCUGAAGAUCCUUGGUUUUUUG [A16U G23A G60A A111G G122U] | -7.12

Variant | polymerase ribozyme fitness (log ratio)
GACCAAUCUGCCCUCUUAGCUCGAGAACAUCUUCGGAUGCAGAGGAGGCAGGCUUCGGUGGCGCGAUAGCGCCAACGUCCUCAACCUCCAAUGCAUCCCACCACAUGAUGAUGCCUGAAGAGCAUUGGUUUUUUG [A16U G17U C124A] | -1.9
GACCAAUCUGCCCUCUGAGCUCGAGAACAUCUUCGGAUGCAGAGGAGGCAGGCUUCGGUGGCGCGAUAGAGCCUACGUCCUCAACCUCCAAUGCAUCCCACCACAUGAUGAUGCCUGAAGAGCCUUGGUUUUUUG [A16U C70A A74U] | -4.08
GACCAAUCUGCCCUCUGAGCUCGAGAAUAUCUUCGGAUGCAGAGGAGGCAGGCUUCGGUGGCGCGAUAGCUCCAACGUCCUCAACCUCCAAUGCAUCCCACCACAUGAUGAUGCCUGAAGAGCCUUGGUUUUUUG [A16U C28U G71U] | -3.34
GACCAAUCUGCCCUCUGAGCUCGAGAACAUCUUCGAAUGCAGAUGAGGCAGGCUUCGGUGGCGCGAUAGCGCCAACGUCCUCCACCUCCAAUGCAUCCCACCACAUGAUGAUGCCUGAAGAGCCUUGGUUUUUUG [A16U G36A G44U A83C] | -5.08
GACCAAUCUGCCCUCUGAGCUCGAGAACAUCUUCGGAUGCAGAGGAGGCAGGCUUCGGUGGCGCGAUAGCGCUAACGUCCUCUACCUCCAAUGCCUCCCACCACAUGAUGAUGCCUGAAGAGCCUUGGUUUUUUG [A16U C73U A83U A95C] | -2.3
GACCAAUCUGCCCUCUGAGCUCGAGAACAUCUUCGGAUGUAGAGGAGGCAGGCUUCGGUGGCGCGAUAGCGCGAACGUCCUCAACCUCCAAUGCAUCCCACCACAUGAUGAUGCCUGAAGAGCCUUGGUUUUUUG [A16U C40U C73G] | -2.11
GACCAAUCUGCCCUCUGAGCUCGAGAACAUCUUCGGAUGCAUAGGAGGCAGGCUUCGGUGGCGCGAUAGCGCCAACGUCCUCAACCUCCAAUGCAUCCCACCACAUGAUGAUGCCUGAAGAGCCUUGGUCUUUUG [A16U G42U U130C] | -3.77
GACCAAUCUGCCCUCUGAGCUCGAGAACAUCUUCGGAUGCAGAGGAGGCAGGCUUCGGUGGCGCGAUAGCGUCAACGUCCUCAACCUCCAAUGCAUCCCACCACAUGAUGAUGCCUGAAGAGCCUUGGUUUUUUG [A16U C72U] | -1.94
GACCAAUCUGCCCUCUGAGCUCGAGAACAUCUUCGGAUGCAGAGGAGGCAGGCUUCGGUGGCGUGAUAGCGCCAACGUCCUCAACCUCCAAUGCAUCCCACCACAUGAUGAUGCCUGAAGAGCCUUGGUUUUUUG [A16U C64U] | -1.71
GACCAAUCUGCCCUCUGAGCUCGAGAACAUCUUCGGAUGCAGAGGAGGCAGGCUUCGGUGGCGCGAUAGCGACAACGUCCUCAACCUCCAAUGCAUCCCACCACAUGAUGAUGCCUGAAGAGCCUUGGUUCUUUG [A16U C72A U131C] | -1.73
GACCAAUCUGCCCUCUGAGCUCGAGAACAUCUUCGGAUGCAGAGGAGGCAGGGUUCGGUGGCGCGAUAGCGCCAACGUCCUCAACCUCCAAUCCAUCCCACCACAUGAUGAUGCCUGAAGAGACUUGGUUUUUUG [A16U C53G G93C C123A] | -1.64
GACCAAUCUGCCCUCUGAGCUCGAGAACAUCUUCGGAUGCAGAGGAGGAAGGCUUCGGUGGCGCGAUAGCGCCAACGUCCUCAACCUCCAAUGCAUCCCACCACAUGAUGAUGCCUGAAGUGCCUUGGGUUUUUG [A16U C49A A121U U129G] | -0.0419
GACCAAUCUGCCCUCUGAGCUUGAGAACAUCUUCGGAUGCAGAGGAGGCAGGCUUCGGUGGCGCGAUAGCGCCAACGUCCUCAACCUCCAAUGCAUCCCACCACAUGAUGAUGCCUGAAGAGCAUUGGUUUUUUG [A16U C22U C124A] | -2.87
GACCAAUCUGCCCUCUGAGCUCGAGAACAUCUUCGGAUGCAGAGGAGGCAGGCUUGGGUGGCUCGAUAGCGCCAACGUCCUCAACCUCCAAUGCAUCCCAUCACAUGAUGAUGCCUGAAGAGCCUUGGUUUUUUG [A16U C56G G63U C101U] | -4.93
GACCAAUCUGCCCUCUGAGCUCGAGAACAUCUUCGCAUGCAGAGGAGGCAGGCUUCGGUGGAGCGAUAGCGCCAACGUCCUCAACCUCCAAUGCAUCCCACCACAUGAUGAUGCCUGAAGCGCCUUGGUUUUUUG [A16U G36C C62A A121C] | -1.88
GACCAAUCUGCCCUCUGAGCUCGAGAACAUCUUCGGAUGCAGAGGAGGCAGGCUUCGGUGGCGCGAUAGCGCCAACGUCCUCAACCUCCAAUGCAUCCCACCACAUGAUGAUGCCUGAAGAGACAUGGUUUUUUG [A16U C123A U125A] | -0.935
GACCAAUCUGCCCUCUGAGCUCGAGAACAUCUUCGGAUGAAGAGGAGGCAGGCUUCGGUGGCGCGAUAGCGCCAACGUCCUCAACCUCCAAUGCAUCCCUCCACAUGAUGAUGCCUGAAGAGCCUUGGUUUUUUG [A16U C40A A100U] | -3.86
GACCAAUCUGCCCUCUGAGCUCGAGAACAUCUUCGGAUGCAGAGGAGGCAGGCUUCGGUGGCGCGAUAGCGGCAACGUCCUCAACCUCCAAUGCAUCCCACCAUAUGAUGAUGCCUGAAGAGCCUUGGUUUUUUG [A16U C72G C104U] | -1.7
GACCAAUCUGCCCUCUAAGCUCGAGAACAUCUUCGGAUGCAGAGGAGGUAGGCUUCUGUGGCGCGAUAGCGCCAACGUCCUCAACCUCCUAUGCAUCCCACCACAUGAUGAUGCCUGAAGAGCCUUGGUUUUUUG [A16U G17A C49U G57U A90U] | -5.5
GACCAAUCUGCCCUCUGAGCUCGAGAACAUCUUCGGAUGCAGAGGAGGCAGGCUUCGGUGGCGCGAUAGCGCCAACGUCCUCAACCUUCAAUGCAUCCCACCACAUGAUGAUGCCUGAAGAGCCUUGGUUUUUUG [A16U C88U] | -1.68
GACCAAUCUGCCCUCUGAGCUCGAGAACAUCUUCGGAUGCAGAGGAGGCAGGCUUCGGUGGCGCGAUAGCGCCAACGUCCUCAACCUCCAAUGCAUCCCACCACCUGAUGAUGCCUGAAUAGCCUUGGUUUUUUG [A16U A105C G120U] | -3.61
